Source: patent publication US20090291081A1 (AbbVie / Abbott, published 2009)
Changes are numbered by the printed parent chain. “And” between values parts separate entries of the source, which are not always exact repeats. Equal entries are not always repeated. Where two headings read alike, the source gives them in different places.

Assays:
human IL-1α [1] = target: T1, human IL-1α (human, UniProt P01583 113-271); test: cell-based or functional assay
T1 sequence (looked up): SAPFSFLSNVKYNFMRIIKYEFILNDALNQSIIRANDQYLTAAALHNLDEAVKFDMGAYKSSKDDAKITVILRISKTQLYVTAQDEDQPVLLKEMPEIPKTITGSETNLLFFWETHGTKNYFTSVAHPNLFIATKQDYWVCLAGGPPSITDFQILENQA

human IL-1β [2] = target: T2, human IL-1β (human, UniProt P01584 117-269); test: BIAcore (SPR)
T2 construct: also called IL-1beta; hIL-1β

human IL-1β [3] = target: T2, human IL-1β; test: cell-based or functional assay
human IL-1α [4] = target: T1, human IL-1α; test: method not given
human IL-1α [5] = target: T1, human IL-1α; test: BIAcore, IL-1α coated chip, dAb flowed over
human IL-1α [6] = target: T1, human IL-1α; test: cell-based or functional assay; remark: listed apart in the source
human IL-1β [7] = target: T3, human IL-1β (human, UniProt P01584 117-269); test: cell-based or functional assay; remark: listed apart in the source
human IL-1β [8] = target: T3, human IL-1β; test: cell-based or functional assay; remark: listed apart in the source
human IL-1α [9] = target: T1, human IL-1α; test: cell-based or functional assay; remark: listed apart in the source
human IL-1β [10] = target: T3, human IL-1β; test: cell-based or functional assay; remark: listed apart in the source
human IL-1α [11] = target: T1, human IL-1α; test: cell-based or functional assay; remark: listed apart in the source
human IL-1α [12] = target: T4, human IL-1α (human, UniProt P01583 113-271); test: BIAcore (SPR)
T4 construct: also called IL-1alpha; hIL-1α
T4 sequence (looked up): T1 sequence (looked up)

human IL-1α [13] = target: T4, human IL-1α; test: cell-based or functional assay; remark: listed apart in the source
human IL-1α [14] = target: T4, human IL-1α; test: cell-based or functional assay; remark: listed apart in the source
human IL-1α [15] = target: T4, human IL-1α; test: Table 62 IC50; RBA presumed
human IL-1α [16] = target: T1, human IL-1α; test: cell-based or functional assay; remark: listed apart in the source
human IL-1α [17] = target: T1, human IL-1α; test: Receptor Binding Assay, IgG; value beside the ABT1 clone
human IL-1β [18] = target: T3, human IL-1β; test: Receptor Binding Assay, IgG; value beside the ABT2 clone

B1: ABT1-6 (other)
VH: EVQLLESGGGLVQPGGSLRLSCAASGFTFGAYDMQWVRQAPGKGLEWVSSINKSGALTSYADSVKGRFTISRDNSKNTLYLQMNSLRAEDTAVYYCAKGWASFDYWGQGTLVTVSS
MRC5 ND50 (human IL-1α [1]): 15 µM

B2: ABT1-6-3 (other)
VH: B1 VH with N52Y
MRC5 ND50 (human IL-1α [1]): 0.08 µM

B3: ABT1-6-15 (other)
VH: B1 VH with G30V, A31R, Q35A
MRC5 ND50 (human IL-1α [1]): 2 µM

B4: ABT2-65 (other)
VH: EVQLLESGGGLVQPGGSLRLSCAASGFTFEDYQMGWVRQAPGKGLEWVSSISAMGNRTYYADSVKGRFTISRDDSKNTLYLQMNSLRAEDTAVYYCAKNLVRTQSKMWMFDYWGQGTLVTVSS
notes: VH dAb
Kd (human IL-1β [2]): 28 nM | MRC5 ND50 (human IL-1β [3]): 266 nM

B5: ABT1-95-2 (other)
VL: DIQMTQSPSSLSASVGDRVTITCRASQPIHGNLRWYQQKPGKAPKLLIYSSSYLQSGVPSRFSGSGSGTDFTLTISSLQPEDFATYYCQQGYRWPVTFGQGTKVEIK
notes: dAb, Vκ, to IL-1α
Kd (human IL-1α [4]): 40 nM | Kd (human IL-1α [5]): 32 to 42 nM

B6: ABT2-108/ABT1-122-511 hu IgG1/K wt (bispecific antibody, V domains shown)
VH: EVQLLESGGGLVQPGGSLRLSCAASGFTFAEYTMMWVRQAPGKGLEWVSRIGQDGKNTYYADSVKGRFTISRDNSKNTLYLQMNSLRAEDTAVYYCAKYTGRVGVHHLFDYWGQGTLVTSS
VL: DIQMTQSPSSLSASVGDRVTITCRASQPIWTELNWYQQKPGKAPKLLIYGSSSLQRGVPSRFSGSGSGTDFTLTISSLQPEDFATYYCKQFAYFPATFGQGTKVEIKR
IL-1α IC50 (human IL-1α [6]): 40 nM | IL-1β IC50 (human IL-1β [7]): 8 nM | MRC-5 IL-1β neutralization potency (human IL-1β [8]): ~8 nM | MRC5 IL-1α (human IL-1α [9]): 80 nM | MRC5 IL-1β (human IL-1β [10]): 8 nM

B7: ABT2-108 (other)
VH: B6 VH
notes: VH dAb
Kd (human IL-1β [2]): 110 nM | MRC5 ND50 (human IL-1β [3]): 200 nM

B8: ABT2-108-620x/ABT1-122-511 huIgG1/K wt (bispecific antibody, V domains shown)
VH: EVQLLESGGGLVQPGGSLRLSCAASGFTFAEESWMWVRQAPGKGLEWVSRIGQDGKNTYYREDVKGRFTISRDNSKNTLYLQMNSLRAEDTAVYYCAKYTGRIMGHHLFDYWGQGTLVTVSS
VL: B6 VL
IL-1β IC50 (human IL-1β [7]): 0.01 nM and 0.02 nM and 0.03 nM | MRC-5 IL-1β neutralization potency (human IL-1β [8]): ~0.03 nM

B9: ABT2-108/ABT1-122 hu IgG1/K wt (bispecific antibody, V domains shown)
VH: B6 VH
VL: DIQMTQSPSSLSASVGDRVTITCRASQPIWTELNWYQQKPGKAPKLLIYGSSSLQSGVPRFSGSGSGTDFTLTISSLQPEDFATYYCQQFAYFPATFGQGTKVEIKR
IL-1β IC50 (human IL-1β [7]): 15 nM and 20 nM and 40 nM | MRC-5 IL-1β neutralization potency (human IL-1β [8]): ~15 nM

B10: ABT1-95-4 (other)
VL: DIQMTQSPSSLSASVGDRVTITCRASQPIVRNLRWYQQKPGKAPKLLIYSSSYLQSGVPSRFSGSGSGTDFTLTISSLQPEDFATYHCQQGYRWPVTFGQGTKVEIKR
notes: dAb, Vκ, to IL-1α
MRC5 ND50 (human IL-1α [11]): 0.9 nM | Kd (human IL-1α [4]): 0.9 nM

B11: ABT1-95 (other)
VL: B10 VL with V30H, R31G, S50N, S51I, Y53N, H87Y
notes: VK dAb
Kd (human IL-1α [12]): 45 nM | MRC5 ND50 (human IL-1α [13]): 800 nM | ND50 (human IL-1α [14]): 800 nM | IC50 (human IL-1α [15]): 500 nM

B12: ABT1-95-1 (other)
chain: B10 VL with V30H, R31G, S50N, S51I, Y53N
Kd (human IL-1α [4]): 40 nM | Kd (human IL-1α [5]): 20 to 42 nM

B13: ABT1-141-25 (other)
VL: B10 VL with P28W, V30Q, R31K, N32Q, R34A, H87Y, G91H, Y92L, W94V, V96M
MRC5 ND50 (human IL-1α [16]): 5 nM

B14: IgG pairing ABT1-95-A2 with ABT2-65-166 (bispecific antibody, V domains shown)
VH: B4 VH with N56G, D74N, K98Q, T103L, Q104G, S105R, K106S, M107R
VL: B10 VL with A25I, S26L, I29P, V30G, S51K, Y53F, Q55E, S56P
notes: IgG; also called 1-95-A2 / 2-65-166
MRC5 IL-1α (human IL-1α [9]): 0.08 nM | MRC5 IL-1β (human IL-1β [10]): 0.121 nM | IC50 (human IL-1α [17]): 0.067 nM | IC50 (human IL-1β [18]): 0.073 nM

B15: ABT1-122 (other)
VL: B6 VL with R56S, K89Q
notes: VK dAb
Kd (human IL-1α [12]): 42 nM | MRC5 ND50 (human IL-1α [13]): 50 nM | ND50 (human IL-1α [14]): 100 nM | IC50 (human IL-1α [15]): 80 nM

B16: ABT1-141-47 (other)
VL: DIQMTQSPSSLSASVGDRVTITCRANQWIQKQLAWYQQKPGKAPKLLIYSSSHLQSGVPSRFSGSGSGTDFTLTISSLQPQDFATYYCQQHLRVPMTFGQGTKVEIKR
MRC5 ND50 (human IL-1α [16]): 1 nM

B17: ABT1-141-76 (other)
VL: B16 VL with Q81E
MRC5 ND50 (human IL-1α [16]): 1 nM

B18: ABT2-46 (other)
VL: DIQMTQSPSSLSASVGDRVTITCRASQSIIEWLSWYQQKPGKAPKLLIYRTSVLQSGVPSRFSGSGSGTDFTLTISSLQPEDFATYYCQQNEFWPFTFGQGTKVEIKR
notes: VK dAb
Kd (human IL-1β [2]): 2800 nM | MRC5 ND50 (human IL-1β [3]): 386 nM

B19: ABT2-76 (other)
VL: B18 VL with I30D, E31R, S34A, T51G, V53I, N91V, E92A, F96P
notes: VK dAb
Kd (human IL-1β [2]): 1300 nM | MRC5 ND50 (human IL-1β [3]): 456 nM

B20: ABT2-42 (other)
VL: B18 VL with S28Y, I30E, E31K, S34T, K45T, T51G, V53L, N91T, F93Y
notes: VK dAb
Kd (human IL-1β [2]): 54000 nM | MRC5 ND50 (human IL-1β [3]): 770 nM

B21: ABT2-13 (other)
VH: EVQLLESGGGLVQPGGSLRLSCAASGFTFRDYVMYWARQAPGKGLEWVSRIDPMGSSTYYADSVKGRFTISRDNSKNTLYLQMNSLRAEDTAVYYCAKPEGNFDYWGQGTLVTVSS
notes: VH dAb
Kd (human IL-1β [2]): 930 nM | MRC5 ND50 (human IL-1β [3]): ~1000 nM

B22: ABT2-108-605/ABT1-122 hu IgG1/K wt (bispecific antibody, V domains shown)
VH: B8 VH with E32Y, S33T, W34M, I103V, M104G, G105V
VL: B9 VL
MRC-5 IL-1β neutralization potency (human IL-1β [8]): ~0.35 nM

B23: ABT2-108-620x/ABT1-122 huIgG1/K wt (bispecific antibody, V domains shown)
VH: B8 VH
VL: B9 VL
IL-1α IC50 (human IL-1α [6]): 150 nM | IL-1β IC50 (human IL-1β [7]): 0.05 nM | MRC-5 IL-1β neutralization potency (human IL-1β [8]): ~0.05 nM
